In patent publication US20210261671A1 (HARPOON THERAPEUTICS, published 2021):
Substitutions are numbered along the chain they refer to.

B1: FLL160 (VHH)
VHH: QVQLQESGGGLVQAGDSLRLSCATSGRTFNLYRVGWFRQAPGKEREFVARITWSADITQYADSVKGRFTISRDNAKNTVYLQMNSLKPEDTAIYYCATTLRKSSGIYHVDDYDDWGQGTQVTVSS
notes: llama anti-FLT3 variable domain; E. coli periplasmic extract
B2: FLL173 (VHH)
VHH: B1 VHH with D16G, A61T, V109T, D114Y
notes: as for B1
B3: FLL45 (VHH)
VHH: QVQLQESGGGLVQAGGSLRLSCAASGGTFSSSAMGWFRQAPGKEREFVATITQNDVPTYYTHSVKGRFTISRDNAKNTMYLQMNSLKPEDTAVYYCAQRVAQASGWRTTIKDYGYWGQGTQVTVSS
notes: as for B1
B4: FLL822 (VHH)
VHH: QVQLQESGGGSVQAGGSLRLSCTASGRTFTDYTMGWFRQAPGKEREFMLGISSNGYRRYYTGSMKDRFTISRDNVKKTVYLQMNDLKPEDTAVYYCAASEDHGAPRYDYWGQGTQVTVSS
notes: as for B1
B5: FLL76 (VHH)
VHH: QVQLQESGGGLVQAGGSLRLSCAASGGAFSSYVMGWFRQAPGKEREFVAAVISWSGRITDYADSVKGRFSISRDNAKSTVYLQMNNLKPEDTAVYYCAAKTGMYIDLRTSTFDYWGQGTQVTVSS
notes: as for B1
B6: FLL1 (VHH)
VHH: QVQLQESGGGLVQAGGSLRLSCAASGRTFSTLTVAWFRQAPGKEREFVVASIPSGSNTGYAESVKGRFTISRDIAKNTVYLQMNSLKPEDTAMYFCAARIYFGSSRGYDYWGQGTQVTVSS
notes: as for B1
B7: FLL26 (VHH)
VHH: B6 VHH with S30T, L32Y, V48L, S54T, G59A, D73G, I74N, F95Y, I100T
notes: as for B1
B8: FLL107 (VHH)
VHH: QVQLQESGGGLVQAGGSLRLSCAASGRTFSSYAMGWFRQAPGKEREFVAAISWSGSNTYYADSVKGRFTISRDNAKNTVYLQMDSLKPEDTAVYYCAAGGSTRVVVTTTPVVKYWGQGTQVTVSS
notes: as for B1
B9: FLL34 (VHH)
VHH: B8 VHH with M34L, S56G, N74D
notes: as for B1
B10: FLL61 (VHH)
VHH: B8 VHH with G26E, S56G, N57S, V111I
notes: as for B1
B11: FLL78 (VHH)
VHH: B8 VHH with L11W, N57S, Q82L
notes: as for B1
B12: FLL141 (VHH)
VHH: B8 VHH with K43M, S56Y, N57S, N74D
notes: as for B1
B13: FLL4 (VHH)
VHH: B8 VHH with G26E, A33T, I51M, S56G, N57S
notes: as for B1
B14: FLL39 (VHH)
VHH: QVQLQESGGGLVQAGGSLRLSCAASGLTSSTYRMAWFRQAPGKEREFAAGISYSADSGGSTNYADSVKGRFTISRDNAKNTVYLQMSSLKPEDTAVYYCAAGRYSGTYNSPYSSSYVYWGQGTQVTVSS
notes: as for B1
B15: FLL823 (VHH)
VHH: QVQLQESGGGVVQVGGSLRLSCAASGGTFGYYAVGWFRQAPGKEREFVAAVTWNGAYLYSDPVKGRFTISRDNAKNTVYLQMNSLKSEDTAVYYCGLDRWSAVVESTPSTRGQGTQVTVSS
notes: as for B1
B16: FLL116 (VHH)
VHH: QVQLQESGGGLVQAGGSLRLSCAASGVTFSINYIDWYRQAPGKQREWVAQITRDSNSFYADSVKGRFAISRDNAKNTVYLQMNSLKPEDTAVYYCRVLSYWGQGTQVTVSS
notes: as for B1
B17: FLL101 (VHH)
VHH: B16 VHH with S84N
notes: as for B1
B18: FLL137 (VHH)
VHH: B16 VHH with V27S, S30N, I31N, N32Y, Y33A, I34M, Y37F, N56S
notes: as for B1
B19: FLL32 (VHH)
VHH: B16 VHH with A23Q, S30N, K43R, N56T, S57R, T77M, M82L, V97I
notes: as for B1
B20: FLL14 (VHH)
VHH: B16 VHH with V97L
notes: as for B1
B21: FLL129 (VHH)
VHH: B16 VHH with I31A, N32S, K43N, Q44E, D54G, S55G, N56D
notes: as for B1
B22: FLL146 (VHH)
VHH: B16 VHH with S55D, N56T, S84N, K86R, V97L, Y100F
notes: as for B1
B23: FLL181 (VHH)
VHH: B16 VHH with G16D, I31A, N32S, K43N, Q44E, D54G, S55G, N56D
notes: as for B1
B24: FLL97 (VHH)
VHH: B16 VHH with I69V
notes: as for B1
B25: FLL103 (VHH)
VHH: B16 VHH with A23E, V27P, I69V
notes: as for B1
B26: FLL179 (VHH)
VHH: B16 VHH with A23K, S55G, N56S, V97I, Y100D
notes: as for B1
B27: FLL77 (VHH)
VHH: B16 VHH with A14P, N32S, K43N, Q44E, D54G, S55G, N56D, V97I
notes: as for B1
B28: FLL187 (VHH)
VHH: B16 VHH with A14P, D72E
notes: as for B1
B29: FLL51 (VHH)
VHH: B16 VHH with A14P, V27F, T28D, N32S, K43N, Q44E, D54G, S55G, N56D, V97I
notes: as for B1
B30: FLL190 (VHH)
VHH: QVQLQESGGGLVQAGGSLTLSCTASGSTFSINHFSWYRQAPGKQRELVAFISSDGVSIDVESVKGRFTISGDNDKNTAYLQMNGLKPEDTAVYYCYYRGFWGQGTQVTVSS
notes: as for B1
B31: FLL43 (VHH)
VHH: B30 VHH with A14P, S35A, V56R, I58T, F100S
notes: as for B1
B32: FLL177 (VHH)
VHH: QVQLQESGGGLVQTGGSLRLSCAASGSTFSRNTMGWFRQAPGKERVFVLGISWSGIRSYYLDSAKARFTISRDNAKNTVYLQMNSLRPEDTAVYYCAAQEGSSPGPYKYWGQGTQVTVSS
notes: as for B1
B33: FLL125 (VHH)
VHH: QVQLQESGGGLVQAGGSLRLSCAASGSTFSRNYIDWYRQAPGKQREWVAQITSGGNTHYEPSLKGRFTISRDNAKNTAYLQMNSLKPEDTAVYYCRILDYWGQGTQVTVSS
notes: as for B1
B34: FLL21 (VHH)
VHH: B33 VHH with A14P, R19T
notes: as for B1
B35: FLL55 (VHH)
VHH: B33 VHH with G54A
notes: as for B1
B36: FLL15 (VHH)
VHH: QVQLQESGGGLVQAGGSLSLSCAASEGTISHAAMGWFRQAPGKERQFVAYDTWTGGSTNYADSVKDRFTITGDHAKNTVYLQMNSLKPEDTGVYYCAVRGRYSASYTYTNPASYKYWGQGTQVTVSS
notes: as for B1
B37: FLL178 (VHH)
VHH: QVQLQESGGGLVQPGGSLRLSCAASGFTFSDYAMSWVRQAPGKGLEWVSGISSGGYKIGYTDSTKGRFTISRDNAKNTLYLQMNSLTAEDTAVYYCAKGTQWSWSLRDNTSRGQGTQVTVSS
notes: as for B1
B38: FLL27 (VHH)
VHH: B37 VHH with A23K, D31S, T87N, S105A, N109S
notes: as for B1

Target: T1, human FLT3 protein (human, UniProt P36888 27-541, limits assumed)
T1 construct: protein coated in the screening ELISA; also called ELISA FLT3
Test: colorimetric ELISA, periplasmic extract
Source text: (§1) Llamas were immunized with purified FLT3 protein expressed in Expi293 cells. A phage display library for expression of heavy variable antibody domains was constructed from circulating B cells isolated from the immunized llamas (See van der Linden, de Geus, Stok, Bos, van Wassenaar, Verrips, and Frenken. 2000. J Immunol Methods 240:185-195). Phage clones were screened for binding to FLT3 by expressing llama anti-FLT3 proteins in E. coli, preparing periplasmic extracts, and performing colorimetric ELISAs.

| Binder | ELISA FLT3 (absorbance) |
| --- | --- |
| B1 | 0.7 |
| B2 | 0.5 |
| B3 | 4 |
| B4 | 4 |
| B5 | 0.5 |
| B6 | 3.4 |
| B7 | 2.9 |
| B8 | 3.8 |
| B9 | 4 |
| B10 | 3.9 |
| B11 | 4 |
| B12 | 4 |
| B13 | 3.7 |
| B14 | 1.9 |
| B15 | 3.6 |
| B16 | 1.1 |
| B17 | 1.7 |
| B18 | 1.8 |
| B19 | 1.6 |

| Binder | ELISA FLT3 (absorbance) |
| --- | --- |
| B20 | 1.8 |
| B21 | 2.6 |
| B22 | 0.9 |
| B23 | 3.2 |
| B24 | 1.4 |
| B25 | 3.8 |
| B26 | 3.7 |
| B27 | 4 |
| B28 | 1.9 |
| B29 | 2.9 |
| B30 | 4 |
| B31 | 2 |
| B32 | 4 |
| B33 | 2.1 |
| B34 | 3.3 |
| B35 | 2 |
| B36 | 2.5 |
| B37 | 4 |
| B38 | 4 |

Target: T1, human FLT3 protein
Test: colorimetric ELISA, signal over control wells lacking FLT3
Source text: as §1

| Binder | FLT3/control [ratio] |
| --- | --- |
| B1 | 9 |
| B2 | 6 |
| B3 | 28 |
| B4 | 17 |
| B5 | 5 |
| B6 | 11 |
| B7 | 4 |
| B8 | 11 |
| B9 | 39 |
| B10 | 25 |
| B11 | 27 |
| B12 | 28 |
| B13 | 43 |
| B14 | 12 |
| B15 | 4 |
| B16 | 5 |
| B17 | 3 |
| B18 | 8 |
| B19 | 5 |

| Binder | FLT3/control [ratio] |
| --- | --- |
| B20 | 5 |
| B21 | 9 |
| B22 | 4 |
| B23 | 5 |
| B24 | 7 |
| B25 | 28 |
| B26 | 17 |
| B27 | 22 |
| B28 | 18 |
| B29 | 16 |
| B30 | 43 |
| B31 | 12 |
| B32 | 54 |
| B33 | 17 |
| B34 | 20 |
| B35 | 6 |
| B36 | 31 |
| B37 | 48 |
| B38 | 10 |
